The text below walks through data of patent publication US20210269818A1.

The test concerns the target Rubisco purified from wheat leaves, inhibited by RuBP (ER) (Triticum aestivum (wheat)) (UniProt P11383). Nature of the test: cell-based or functional assay.

For the substance “recombinant wheat Rca2 α (TaRca2-α), signal peptide deleted, C-terminal His-tag (from UniProt Q40073 47-464) (enzyme)”, the Tm (° C.) (V): thermal midpoint at which half of Rubisco activation velocity by Rca is lost was 35.3 ° C.
On to “Rca extracted from heat treated wheat leaves (TaRca-leaf-38° C.) (enzyme)”, for which the Tm (° C.) (V): thermal midpoint at which half of Rubisco activation velocity by Rca is lost stood at 39.5 ° C.
“recombinant rice Rca β (OsRca-β), signal peptide deleted, C-terminal His-tag (from UniProt P93431 49-466) (enzyme)”: the Tm (° C.) (V): thermal midpoint at which half of Rubisco activation velocity by Rca is lost was 42.5 ° C.
Regarding “recombinant wheat Rca1 β (TaRca1-β), signal peptide deleted, C-terminal His-tag (from UniProt Q42450 44-425) (enzyme)”, the Tm (° C.) (V): thermal midpoint at which half of Rubisco activation velocity by Rca is lost stood at 42 ° C.
In the case of “Rca extracted from control wheat leaves (TaRca-leaf-25° C.) (enzyme)” it was 38.6 ° C.
In the case of “recombinant wheat Rca2 β (TaRca2-β), signal peptide deleted, C-terminal His-tag (from UniProt Q40073 49-427) (enzyme)”, the Tm (° C.) (V): thermal midpoint at which half of Rubisco activation velocity by Rca is lost came out at 34.8 ° C.
